B1: SecA N640 (SecA 1-640) (domain or fragment)
chain: MLIKLLTKVFGSRNDRTLRRMRKVVNIINAMEPEMEKLSDEELKGKTAEFRARLEKGEVLENLIPEAFAVVREASKRVFGMRHFDVQLLGGMVLNERCIAEMRTGEGKTLTATLPAYLNALTGKGVHVVTVNDYLAQRDAENNRPLFEFLGLTVGINLPGMPAPAKREAYAADITYGTNNEYGFDYLRDNMAFSPEERVQRKLHYALVDEVDSILIDEARTPLIISGPAEDSSEMYKRVNKIIPHLIRQEKEDSETFQGEGHFSVDEKSRQVNLTERGLVLIEELLVKEGIMDEGESLYSPANIMLMHHVTAALRAHALFTRDVDYIVKDGEVIIVDEHTGRTMQGRRWSDGLHQAVEAKEGVQIQNENQTLASITFQNYFRLYEKLAGMTGTADTEAFEFSSIYKLDTVVVPTNRPMIRKDLPDLVYMTEAEKIQAIIEDIKERTAKGQPVLVGTISIEKSELVSNELTKAGIKHNVLNAKFHANEAAIVAQAGYPAAVTIATNMAGRGTDIVLGGSWQAEVAALENPTAEQIEKIKADWQVRHDAVLEAGGLHIIGTERHESRRIDNQLRGRSGRQGDAGSSRFYLSMEDALMRIFASDRVSGMMRKLGMKPGEAIEHPWVTKAIANAQRKVESRNFD
B2: SecA N643 (SecA 1-643) (domain or fragment)
chain: MLIKLLTKVFGSRNDRTLRRMRKVVNIINAMEPEMEKLSDEELKGKTAEFRARLEKGEVLENLIPEAFAVVREASKRVFGMRHFDVQLLGGMVLNERCIAEMRTGEGKTLTATLPAYLNALTGKGVHVVTVNDYLAQRDAENNRPLFEFLGLTVGINLPGMPAPAKREAYAADITYGTNNEYGFDYLRDNMAFSPEERVQRKLHYALVDEVDSILIDEARTPLIISGPAEDSSEMYKRVNKIIPHLIRQEKEDSETFQGEGHFSVDEKSRQVNLTERGLVLIEELLVKEGIMDEGESLYSPANIMLMHHVTAALRAHALFTRDVDYIVKDGEVIIVDEHTGRTMQGRRWSDGLHQAVEAKEGVQIQNENQTLASITFQNYFRLYEKLAGMTGTADTEAFEFSSIYKLDTVVVPTNRPMIRKDLPDLVYMTEAEKIQAIIEDIKERTAKGQPVLVGTISIEKSELVSNELTKAGIKHNVLNAKFHANEAAIVAQAGYPAAVTIATNMAGRGTDIVLGGSWQAEVAALENPTAEQIEKIKADWQVRHDAVLEAGGLHIIGTERHESRRIDNQLRGRSGRQGDAGSSRFYLSMEDALMRIFASDRVSGMMRKLGMKPGEAIEHPWVTKAIANAQRKVESRNFDIRK
B3: SecA N632 (SecA 1-632) (domain or fragment)
chain: MLIKLLTKVFGSRNDRTLRRMRKVVNIINAMEPEMEKLSDEELKGKTAEFRARLEKGEVLENLIPEAFAVVREASKRVFGMRHFDVQLLGGMVLNERCIAEMRTGEGKTLTATLPAYLNALTGKGVHVVTVNDYLAQRDAENNRPLFEFLGLTVGINLPGMPAPAKREAYAADITYGTNNEYGFDYLRDNMAFSPEERVQRKLHYALVDEVDSILIDEARTPLIISGPAEDSSEMYKRVNKIIPHLIRQEKEDSETFQGEGHFSVDEKSRQVNLTERGLVLIEELLVKEGIMDEGESLYSPANIMLMHHVTAALRAHALFTRDVDYIVKDGEVIIVDEHTGRTMQGRRWSDGLHQAVEAKEGVQIQNENQTLASITFQNYFRLYEKLAGMTGTADTEAFEFSSIYKLDTVVVPTNRPMIRKDLPDLVYMTEAEKIQAIIEDIKERTAKGQPVLVGTISIEKSELVSNELTKAGIKHNVLNAKFHANEAAIVAQAGYPAAVTIATNMAGRGTDIVLGGSWQAEVAALENPTAEQIEKIKADWQVRHDAVLEAGGLHIIGTERHESRRIDNQLRGRSGRQGDAGSSRFYLSMEDALMRIFASDRVSGMMRKLGMKPGEAIEHPWVTKAIANAQR
B4: SecA N668 (SecA 1-668) (domain or fragment)
chain: MLIKLLTKVFGSRNDRTLRRMRKVVNIINAMEPEMEKLSDEELKGKTAEFRARLEKGEVLENLIPEAFAVVREASKRVFGMRHFDVQLLGGMVLNERCIAEMRTGEGKTLTATLPAYLNALTGKGVHVVTVNDYLAQRDAENNRPLFEFLGLTVGINLPGMPAPAKREAYAADITYGTNNEYGFDYLRDNMAFSPEERVQRKLHYALVDEVDSILIDEARTPLIISGPAEDSSEMYKRVNKIIPHLIRQEKEDSETFQGEGHFSVDEKSRQVNLTERGLVLIEELLVKEGIMDEGESLYSPANIMLMHHVTAALRAHALFTRDVDYIVKDGEVIIVDEHTGRTMQGRRWSDGLHQAVEAKEGVQIQNENQTLASITFQNYFRLYEKLAGMTGTADTEAFEFSSIYKLDTVVVPTNRPMIRKDLPDLVYMTEAEKIQAIIEDIKERTAKGQPVLVGTISIEKSELVSNELTKAGIKHNVLNAKFHANEAAIVAQAGYPAAVTIATNMAGRGTDIVLGGSWQAEVAALENPTAEQIEKIKADWQVRHDAVLEAGGLHIIGTERHESRRIDNQLRGRSGRQGDAGSSRFYLSMEDALMRIFASDRVSGMMRKLGMKPGEAIEHPWVTKAIANAQRKVESRNFDIRKQLLEYDDVANDQRRAIYSQRNELLD
B5: SecA N639* (SecA 1-639, F639D) (domain or fragment)
chain: MLIKLLTKVFGSRNDRTLRRMRKVVNIINAMEPEMEKLSDEELKGKTAEFRARLEKGEVLENLIPEAFAVVREASKRVFGMRHFDVQLLGGMVLNERCIAEMRTGEGKTLTATLPAYLNALTGKGVHVVTVNDYLAQRDAENNRPLFEFLGLTVGINLPGMPAPAKREAYAADITYGTNNEYGFDYLRDNMAFSPEERVQRKLHYALVDEVDSILIDEARTPLIISGPAEDSSEMYKRVNKIIPHLIRQEKEDSETFQGEGHFSVDEKSRQVNLTERGLVLIEELLVKEGIMDEGESLYSPANIMLMHHVTAALRAHALFTRDVDYIVKDGEVIIVDEHTGRTMQGRRWSDGLHQAVEAKEGVQIQNENQTLASITFQNYFRLYEKLAGMTGTADTEAFEFSSIYKLDTVVVPTNRPMIRKDLPDLVYMTEAEKIQAIIEDIKERTAKGQPVLVGTISIEKSELVSNELTKAGIKHNVLNAKFHANEAAIVAQAGYPAAVTIATNMAGRGTDIVLGGSWQAEVAALENPTAEQIEKIKADWQVRHDAVLEAGGLHIIGTERHESRRIDNQLRGRSGRQGDAGSSRFYLSMEDALMRIFASDRVSGMMRKLGMKPGEAIEHPWVTKAIANAQRKVESRND

Assays:
[1] = target: SecYEG-SecDF•YajC (E. coli) (UniProt P0AGA2)
[2] = target: SecA C34 (C-terminal 34 kD protein; SecA 610-901) (E. coli) (UniProt P10408)

Binder | Channel Activity, μA, +YEG: ion current in Xenopus oocytes injected with the fragment, liposomes, SecYEG-SecDF•YajC, pOmpA, ATP-Mg [1] [μA] | translocation of pOmpA, liposomes with SecYEG-SecDF•YajC, N-fragment reconstituted with C34 (Fig 6B) (% of the activity of intact SecA) [2] | % pOmpA Translocation, +YEG: in vitro translocation of pOmpA into liposomes with SecYEG-SecDF•YajC (% pOmpA Translocation) [1]
B1 | 2.2 | 50 | –
B2 | 3.2 | – | –
B3 | 0.4 | – | –
B4 | 5.8 | 50 | 0
B5 | 1.1 | – | –

Reference: paper PMC5456053
